Measurements taken from patent publication US20130303441.

T1: pGS-1 peptide substrate, YRRAAVPPSPSLSRHSSPSQS(p)EDEEE
T1 chain: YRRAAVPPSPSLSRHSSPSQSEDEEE

T2: pIRS-1 peptide substrate, RREGGMSRPAS(p)VDG
T2 chain: RREGGMSRPASVDG

T3: p9CREB peptide substrate, ILSRRPS(p)YR
T3 chain: ILSRRPSYR

T4: L803-mts, cell permeable variant of L803 with myristic acid attached to its N-terminal
T4 chain: GKEAPPAPPQSP


Columns and labels:
[1] = biological target: T1, pGS-1 peptide substrate, …
[2] = biological target: T2, pIRS-1 peptide substrate, …
[3] = biological target: T3, p9CREB peptide substrate, ILSRRPS(p)YR
[4] = biological target: T4, L803-mts, cell permeable variant of …

Protein | Substrate phosphorylation (% of WTGSK-3β), in vitro kinase assay (% of WT GSK-3β) [1] | Substrate phosphorylation (% of WTGSK-3β), in vitro kinase assay (% of WT GSK-3β) [2] | Substrate phosphorylation (% of WTGSK-3β), in vitro kinase assay (% of WT GSK-3β) [3] | in vitro kinase assays using pIRS-1, p9CREB and pGS-1 substrate in the presence or absence of L803-mts (100 µM) [4]
GSK-3β F93A mutant (protein) MSGRPRTTSFAESCKPVQQPSAFGSMKVSRDKDGSKVTTVVATPGQGPDRPQEVSYTDTKVIGNGSFGVVYQAKLCDSGELVAIKKVLQDKRAKNRELQIMRKLDHCNIVRLRYFFYSSGEKKDEVYLNLVLDYVPETVYRVARHYSRAKQTLPVIYVKLYMYQLFRSLAYIHSFGICHRDIKPQNLLLDPDTAVLKLCDFGSAKQLVRGEPNVSYICSRYYRAPELIFGATDYTSSIDVWSAGCVLAELLLGQPIFPGDSGVDQLVEIIKVLGTPTREQIREMNPNYTEFKFPQIKAHPWTKDSSGTGHFTSGVRVFRPRTPPEAIALCSRLLEYTPTARLTPLEACAHSFFDELRDPNVKLPNGRDTPALFNFTTQELSSNPPLATILIPPHARIQAAASTPTNATAASDANTGDRGQTNNAASASASNST | 13 | 42 | 46 | –
GSK-3β R92A mutant (protein) MSGRPRTTSFAESCKPVQQPSAFGSMKVSRDKDGSKVTTVVATPGQGPDRPQEVSYTDTKVIGNGSFGVVYQAKLCDSGELVAIKKVLQDKAFKNRELQIMRKLDHCNIVRLRYFFYSSGEKKDEVYLNLVLDYVPETVYRVARHYSRAKQTLPVIYVKLYMYQLFRSLAYIHSFGICHRDIKPQNLLLDPDTAVLKLCDFGSAKQLVRGEPNVSYICSRYYRAPELIFGATDYTSSIDVWSAGCVLAELLLGQPIFPGDSGVDQLVEIIKVLGTPTREQIREMNPNYTEFKFPQIKAHPWTKDSSGTGHFTSGVRVFRPRTPPEAIALCSRLLEYTPTARLTPLEACAHSFFDELRDPNVKLPNGRDTPALFNFTTQELSSNPPLATILIPPHARIQAAASTPTNATAASDANTGDRGQTNNAASASASNST | 41 | 60 | 49 | –
GSK-3β D90A mutant (protein) MSGRPRTTSFAESCKPVQQPSAFGSMKVSRDKDGSKVTTVVATPGQGPDRPQEVSYTDTKVIGNGSFGVVYQAKLCDSGELVAIKKVLQAKRFKNRELQIMRKLDHCNIVRLRYFFYSSGEKKDEVYLNLVLDYVPETVYRVARHYSRAKQTLPVIYVKLYMYQLFRSLAYIHSFGICHRDIKPQNLLLDPDTAVLKLCDFGSAKQLVRGEPNVSYICSRYYRAPELIFGATDYTSSIDVWSAGCVLAELLLGQPIFPGDSGVDQLVEIIKVLGTPTREQIREMNPNYTEFKFPQIKAHPWTKDSSGTGHFTSGVRVFRPRTPPEAIALCSRLLEYTPTARLTPLEACAHSFFDELRDPNVKLPNGRDTPALFNFTTQELSSNPPLATILIPPHARIQAAASTPTNATAASDANTGDRGQTNNAASASASNST | 83 | 88 | 92 | –
GSK-3β K91A mutant (protein) MSGRPRTTSFAESCKPVQQPSAFGSMKVSRDKDGSKVTTVVATPGQGPDRPQEVSYTDTKVIGNGSFGVVYQAKLCDSGELVAIKKVLQDARFKNRELQIMRKLDHCNIVRLRYFFYSSGEKKDEVYLNLVLDYVPETVYRVARHYSRAKQTLPVIYVKLYMYQLFRSLAYIHSFGICHRDIKPQNLLLDPDTAVLKLCDFGSAKQLVRGEPNVSYICSRYYRAPELIFGATDYTSSIDVWSAGCVLAELLLGQPIFPGDSGVDQLVEIIKVLGTPTREQIREMNPNYTEFKFPQIKAHPWTKDSSGTGHFTSGVRVFRPRTPPEAIALCSRLLEYTPTARLTPLEACAHSFFDELRDPNVKLPNGRDTPALFNFTTQELSSNPPLATILIPPHARIQAAASTPTNATAASDANTGDRGQTNNAASASASNST | 119 | 140 | 161 | –
GSK-3β K94A mutant (protein) MSGRPRTTSFAESCKPVQQPSAFGSMKVSRDKDGSKVTTVVATPGQGPDRPQEVSYTDTKVIGNGSFGVVYQAKLCDSGELVAIKKVLQDKRFANRELQIMRKLDHCNIVRLRYFFYSSGEKKDEVYLNLVLDYVPETVYRVARHYSRAKQTLPVIYVKLYMYQLFRSLAYIHSFGICHRDIKPQNLLLDPDTAVLKLCDFGSAKQLVRGEPNVSYICSRYYRAPELIFGATDYTSSIDVWSAGCVLAELLLGQPIFPGDSGVDQLVEIIKVLGTPTREQIREMNPNYTEFKFPQIKAHPWTKDSSGTGHFTSGVRVFRPRTPPEAIALCSRLLEYTPTARLTPLEACAHSFFDELRDPNVKLPNGRDTPALFNFTTQELSSNPPLATILIPPHARIQAAASTPTNATAASDANTGDRGQTNNAASASASNST | 19 | 52 | 71 | –
wild-type (WT) GSK-3β (protein) MSGRPRTTSFAESCKPVQQPSAFGSMKVSRDKDGSKVTTVVATPGQGPDRPQEVSYTDTKVIGNGSFGVVYQAKLCDSGELVAIKKVLQDKRFKNRELQIMRKLDHCNIVRLRYFFYSSGEKKDEVYLNLVLDYVPETVYRVARHYSRAKQTLPVIYVKLYMYQLFRSLAYIHSFGICHRDIKPQNLLLDPDTAVLKLCDFGSAKQLVRGEPNVSYICSRYYRAPELIFGATDYTSSIDVWSAGCVLAELLLGQPIFPGDSGVDQLVEIIKVLGTPTREQIREMNPNYTEFKFPQIKAHPWTKDSSGTGHFTSGVRVFRPRTPPEAIALCSRLLEYTPTARLTPLEACAHSFFDELRDPNVKLPNGRDTPALFNFTTQELSSNPPLATILIPPHARIQAAASTPTNATAASDANTGDRGQTNNAASASASNST | – | – | – | L803-mts competes with various substrates
